Test results: PMC8724787
Read-outs that look alike come from different tables or passages of the source.

Biological target: DENV1 strain Hawaii envelope (E) protein on virions (Dengue virus 1 (strain Hawaii))
Assay: ELISA; apparent

B1: C10 intact bivalent IgG1 (human monoclonal antibody EDE1 C10) (protein)
chain 1: EVQLVESGAEVKKPGASVKVSCKASGYTFTSYAMHWVRQAPGQRLEWMGWINAGNGNTKYSQKFQDRVTITRDTSASTAYMELSSLRSEDTAIYYCARDKVDDYGDYWFPTLWYFDYWGQGTLVTVSS
chain 2: QSALTQPASVSGSPGQSITISCTGTSSDVGGFNYVSWFQQHPGKAPKLMLYDVTSRPSGVSSRFSGSKSGNTASLTISGLQAEDEADYYCSSHTSRGTWVFGGGTKLTVL
- Kd: 2.6 nM

B2: C10 monovalent antigen binding fragment (Fab) (protein)
chain 1: EVQLVESGAEVKKPGASVKVSCKASGYTFTSYAMHWVRQAPGQRLEWMGWINAGNGNTKYSQKFQDRVTITRDTSASTAYMELSSLRSEDTAIYYCARDKVDDYGDYWFPTLWYFDYWGQGTLVTVSS
chain 2: QSALTQPASVSGSPGQSITISCTGTSSDVGGFNYVSWFQQHPGKAPKLMLYDVTSRPSGVSSRFSGSKSGNTASLTISGLQAEDEADYYCSSHTSRGTWVFGGGTKLTVL
- Kd (Fab): 9.85 nM
